# Measured values: paper PMC6555819, “Comprehensive study of nuclear receptor DNA binding provides a revised framework for understanding receptor specificity”
# Molecular target: FXR:RXRa (Homo sapiens, UniProt Q96RI1;P19793 full;full)
# Assay: no ligand; PBM; 270 nM : 90 nM RXRa; PBS pH 7.4, 2% milk, 0.02% Triton X-100, 1 mM DTT, BSA, 0.4 mg/ml salmon testes DNA
# Conditions: tags: His kept;His cleaved; copies: 1;1; label: surface-attached array probe
# How it was run: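 Custom Agilent 4×180K protein-binding microarrays carried double-stranded probes, each with a 34-nt variable region. These regions held direct-repeat seeds, single-nucleotide variants, half-site ablations and random human genomic background sequences. Ligand-free nuclear receptor dimers were incubated on the arrays for 1 h, antibodies against each partner (one per run) detected binding, and scanned fluorescence was regression-normalized. Binding z-scores take the random background probes as reference.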
# Chain of FXR:RXRa (Q96RI1 whole entry, chain 1 of 2): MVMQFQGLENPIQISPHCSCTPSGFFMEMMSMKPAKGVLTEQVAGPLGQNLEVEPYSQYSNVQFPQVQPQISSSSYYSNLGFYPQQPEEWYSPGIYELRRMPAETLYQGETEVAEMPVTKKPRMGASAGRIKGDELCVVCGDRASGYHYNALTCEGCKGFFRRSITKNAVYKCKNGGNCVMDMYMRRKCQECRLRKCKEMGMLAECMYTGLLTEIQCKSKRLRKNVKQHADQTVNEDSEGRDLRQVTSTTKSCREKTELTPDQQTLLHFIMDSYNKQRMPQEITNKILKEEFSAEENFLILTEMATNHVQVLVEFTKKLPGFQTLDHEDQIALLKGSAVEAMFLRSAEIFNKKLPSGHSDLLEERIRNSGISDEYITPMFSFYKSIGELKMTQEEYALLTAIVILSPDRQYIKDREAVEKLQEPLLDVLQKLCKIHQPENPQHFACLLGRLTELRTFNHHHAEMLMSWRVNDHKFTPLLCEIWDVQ
# Chain of FXR:RXRa (P19793 whole entry, chain 2 of 2): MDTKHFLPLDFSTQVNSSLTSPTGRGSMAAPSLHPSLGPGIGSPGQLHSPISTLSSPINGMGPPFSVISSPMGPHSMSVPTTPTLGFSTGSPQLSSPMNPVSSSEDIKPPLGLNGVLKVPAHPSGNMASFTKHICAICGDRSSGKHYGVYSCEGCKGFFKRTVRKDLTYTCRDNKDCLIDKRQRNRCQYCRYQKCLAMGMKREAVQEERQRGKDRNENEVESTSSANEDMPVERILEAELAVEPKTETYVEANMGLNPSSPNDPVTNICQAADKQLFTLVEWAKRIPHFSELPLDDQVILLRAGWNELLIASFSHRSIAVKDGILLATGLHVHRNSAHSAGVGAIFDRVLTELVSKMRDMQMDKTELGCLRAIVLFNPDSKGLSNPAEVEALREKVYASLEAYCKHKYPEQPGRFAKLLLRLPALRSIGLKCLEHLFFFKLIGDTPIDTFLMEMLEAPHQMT
row,Binder,binding signal
1,NRC3_random_hg19_36_o1 (dsDNA) DNA 1: GCCAGGCAGTTTGCTTGAGCTCAGGAGTTCAAGACTGCGATTGACAGCGTAGAATGAAGG DNA 2: CCTTCATTCTACGCTGTCAATCGCAGTCTTGAACTCCTGAGCTCAAGCAAACTGCCTGGC,-0.62 PBM z-score against 500 random probes
2,NRC3_random_hg19_467_o1 (dsDNA) DNA 1: GCGAAACTGCTGCAAAGGCCTACTGAAGCCTGACTGGCGATTGACAGCGTAGAATGAAGG DNA 2: CCTTCATTCTACGCTGTCAATCGCCAGTCAGGCTTCAGTAGGCCTTTGCAGCAGTTTCGC,-0.59 PBM z-score against 500 random probes
3,NRC3_wobSeed87_DR3_T8A_o1 (dsDNA) DNA 1: GCCGAACAAGGTCATCCAGGACAGTGAATACATTGAGCGATTGACAGCGTAGAATGAAGG DNA 2: CCTTCATTCTACGCTGTCAATCGCTCAATGTATTCACTGTCCTGGATGACCTTGTTCGGC,8.1 PBM z-score against 500 random probes
4,NRC3_wobSeed87_DR3_A5C_o1 (dsDNA) DNA 1: GCCGCACTAGGTCATCCAGGACAGTGAATACATTGAGCGATTGACAGCGTAGAATGAAGG DNA 2: CCTTCATTCTACGCTGTCAATCGCTCAATGTATTCACTGTCCTGGATGACCTAGTGCGGC,4.33 PBM z-score against 500 random probes
5,NRC3_wobSeed134_DR5_G26C_o1 (dsDNA) DNA 1: GCGCTGCTAGGTCAACTGATGGTCACCTAAAGCTCGGCGATTGACAGCGTAGAATGAAGG DNA 2: CCTTCATTCTACGCTGTCAATCGCCGAGCTTTAGGTGACCATCAGTTGACCTAGCAGCGC,4.42 PBM z-score against 500 random probes
6,NRC3_random_hg19_345_o1 (dsDNA) DNA 1: GCGCAGTGGGTGATGATGTCACTGGTTAACGTGGCTGCGATTGACAGCGTAGAATGAAGG DNA 2: CCTTCATTCTACGCTGTCAATCGCAGCCACGTTAACCAGTGACATCATCACCCACTGCGC,-0.31 PBM z-score against 500 random probes
7,NRC3_random_hg19_87_o1 (dsDNA) DNA 1: GCGACTGCTTGCATCAGTCAAGGTTTGGGCAGTGAGGCGATTGACAGCGTAGAATGAAGG DNA 2: CCTTCATTCTACGCTGTCAATCGCCTCACTGCCCAAACCTTGACTGATGCAAGCAGTCGC,-0.74 PBM z-score against 500 random probes
8,NRC3_wobSeed10_DR0_T4G_o1 (dsDNA) DNA 1: GCAGCGAAAGGTCGAGGTGAGTATAGAGAAAGGGAAGCGATTGACAGCGTAGAATGAAGG DNA 2: CCTTCATTCTACGCTGTCAATCGCTTCCCTTTCTCTATACTCACCTCGACCTTTCGCTGC,4.31 PBM z-score against 500 random probes
9,NRC3_wobSeed88_DR3_C21A_o1 (dsDNA) DNA 1: GCTAGCCTAGGTCATGCGGGACAGTATAGTGTCGGCGCGATTGACAGCGTAGAATGAAGG DNA 2: CCTTCATTCTACGCTGTCAATCGCGCCGACACTATACTGTCCCGCATGACCTAGGCTAGC,4.37 PBM z-score against 500 random probes
10,NRC3_random_hg19_488_o1 (dsDNA) DNA 1: GCGGTTGCAGTGAGCTGAGATCACACCACTGCACTCGCGATTGACAGCGTAGAATGAAGG DNA 2: CCTTCATTCTACGCTGTCAATCGCGAGTGCAGTGGTGTGATCTCAGCTCACTGCAACCGC,-0.28 PBM z-score against 500 random probes
11,NRC3_wobSeed42_DR1_C7A_o1 (dsDNA) DNA 1: GCTATAAAGGGTCAAAGGCCAGAGTACGAATGTCGAGCGATTGACAGCGTAGAATGAAGG DNA 2: CCTTCATTCTACGCTGTCAATCGCTCGACATTCGTACTCTGGCCTTTGACCCTTTATAGC,7.71 PBM z-score against 500 random probes
12,NRC3_wobSeed14_DR0_T8G_o1 (dsDNA) DNA 1: GCCCTGCGAGGTCATGGTCAGCTAATCTACAGTATGGCGATTGACAGCGTAGAATGAAGG DNA 2: CCTTCATTCTACGCTGTCAATCGCCATACTGTAGATTAGCTGACCATGACCTCGCAGGGC,7.8 PBM z-score against 500 random probes
13,NRC3_random_hg19_377_o1 (dsDNA) DNA 1: GCTTTAGAAGAAAGGTTTCATTACTGAGAGCAGCCAGCGATTGACAGCGTAGAATGAAGG DNA 2: CCTTCATTCTACGCTGTCAATCGCTGGCTGCTCTCAGTAATGAAACCTTTCTTCTAAAGC,-0.61 PBM z-score against 500 random probes
14,NRC3_wobSeed63_DR2_T8A_o1 (dsDNA) DNA 1: GCCGAACAAGGTCACCAGGACAGTGAAGAGGTTGGAGCGATTGACAGCGTAGAATGAAGG DNA 2: CCTTCATTCTACGCTGTCAATCGCTCCAACCTCTTCACTGTCCTGGTGACCTTGTTCGGC,7.74 PBM z-score against 500 random probes
15,NRC3_random_hg19_144_o1 (dsDNA) DNA 1: GCCAGTGCTGGCGTCGTAGTGCTTGCCATAACAGAGGCGATTGACAGCGTAGAATGAAGG DNA 2: CCTTCATTCTACGCTGTCAATCGCCTCTGTTATGGCAAGCACTACGACGCCAGCACTGGC,-0.87 PBM z-score against 500 random probes
16,NRC3_wobSeed135_DR5_T8G_o1 (dsDNA) DNA 1: GCCGAACGAGGTCATTGACAGGACAGTGAATAGTAAGCGATTGACAGCGTAGAATGAAGG DNA 2: CCTTCATTCTACGCTGTCAATCGCTTACTATTCACTGTCCTGTCAATGACCTCGTTCGGC,7.83 PBM z-score against 500 random probes
17,NRC3_wobSeed135_DR5_T8A_o1 (dsDNA) DNA 1: GCCGAACAAGGTCATTGACAGGACAGTGAATAGTAAGCGATTGACAGCGTAGAATGAAGG DNA 2: CCTTCATTCTACGCTGTCAATCGCTTACTATTCACTGTCCTGTCAATGACCTTGTTCGGC,7.74 PBM z-score against 500 random probes

row,Binder,binding signal
1,NRC3_wobSeed141_DR5_A29T_o1 (dsDNA) DNA 1: GCAGTCAAAGTTCAGGACGAGGTAACGTTAAGCACGGCGATTGACAGCGTAGAATGAAGG DNA 2: CCTTCATTCTACGCTGTCAATCGCCGTGCTTAACGTTACCTCGTCCTGAACTTTGACTGC,4.29 PBM z-score against 500 random probes
2,NRC3_wobSeed140_DR5_T13C_o1 (dsDNA) DNA 1: GCAGAATGAGGTCATACGTAGATCAGGGAAGAAAGTGCGATTGACAGCGTAGAATGAAGG DNA 2: CCTTCATTCTACGCTGTCAATCGCACTTTCTTCCCTGATCTACGTATGACCTCATTCTGC,8.1 PBM z-score against 500 random probes
3,NRC3_wobSeed116_DR4_T13C_o1 (dsDNA) DNA 1: GCAGAATGAGGTCACCAAAGATCAGGGAAACGCTTGGCGATTGACAGCGTAGAATGAAGG DNA 2: CCTTCATTCTACGCTGTCAATCGCCAAGCGTTTCCCTGATCTTTGGTGACCTCATTCTGC,7.91 PBM z-score against 500 random probes
4,NRC3_wobSeed109_DR4_A8G_o1 (dsDNA) DNA 1: GCCGTCCGAGGTCATAGGAGGTCAGTGAAGACAGATGCGATTGACAGCGTAGAATGAAGG DNA 2: CCTTCATTCTACGCTGTCAATCGCATCTGTCTTCACTGACCTCCTATGACCTCGGACGGC,8.19 PBM z-score against 500 random probes
5,NRC3_wobSeed39_DR1_T8G_o1 (dsDNA) DNA 1: GCCGAACGAGGTCAAAGGACAGTGAAAGGCGACGTAGCGATTGACAGCGTAGAATGAAGG DNA 2: CCTTCATTCTACGCTGTCAATCGCTACGTCGCCTTTCACTGTCCTTTGACCTCGTTCGGC,8.11 PBM z-score against 500 random probes
6,NRC3_wobSeed39_DR1_G22T_o1 (dsDNA) DNA 1: GCCGAACTAGGTCAAAGGACATTGAAAGGCGACGTAGCGATTGACAGCGTAGAATGAAGG DNA 2: CCTTCATTCTACGCTGTCAATCGCTACGTCGCCTTTCAATGTCCTTTGACCTAGTTCGGC,4.46 PBM z-score against 500 random probes
7,NRC3_wobSeed13_DR0_G21A_o1 (dsDNA) DNA 1: GCCGTCCAAGGTCAAGGTCAATGAAAGAGACTCGAAGCGATTGACAGCGTAGAATGAAGG DNA 2: CCTTCATTCTACGCTGTCAATCGCTTCGAGTCTCTTTCATTGACCTTGACCTTGGACGGC,8.19 PBM z-score against 500 random probes
8,NRC3_wobSeed114_DR4_T5A_o1 (dsDNA) DNA 1: GCAAAACAGGGTCATCGTAGGCCAGAGTACGCACAGGCGATTGACAGCGTAGAATGAAGG DNA 2: CCTTCATTCTACGCTGTCAATCGCCTGTGCGTACTCTGGCCTACGATGACCCTGTTTTGC,7.8 PBM z-score against 500 random probes
9,NRC3_wobSeed114_DR4_C7A_o1 (dsDNA) DNA 1: GCAATAAAGGGTCATCGTAGGCCAGAGTACGCACAGGCGATTGACAGCGTAGAATGAAGG DNA 2: CCTTCATTCTACGCTGTCAATCGCCTGTGCGTACTCTGGCCTACGATGACCCTTTATTGC,7.8 PBM z-score against 500 random probes
10,NRC3_wobSeed114_DR4_G20C_o1 (dsDNA) DNA 1: GCAATACAGGGTCATCGTACGCCAGAGTACGCACAGGCGATTGACAGCGTAGAATGAAGG DNA 2: CCTTCATTCTACGCTGTCAATCGCCTGTGCGTACTCTGGCGTACGATGACCCTGTATTGC,7.71 PBM z-score against 500 random probes
11,NRC3_random_hg19_232_o1 (dsDNA) DNA 1: GCTTAGCAGGAACTGAGAAGTCACACTCAAGAGTTAGCGATTGACAGCGTAGAATGAAGG DNA 2: CCTTCATTCTACGCTGTCAATCGCTAACTCTTGAGTGTGACTTCTCAGTTCCTGCTAAGC,-0.34 PBM z-score against 500 random probes
12,NRC3_wobSeed92_DR3_T13C_o1 (dsDNA) DNA 1: GCAGAATGAGGTCATTAAGATCAGGGAATTGCGGTCGCGATTGACAGCGTAGAATGAAGG DNA 2: CCTTCATTCTACGCTGTCAATCGCGACCGCAATTCCCTGATCTTAATGACCTCATTCTGC,7.7 PBM z-score against 500 random probes
13,NRC3_wobSeed20_DR0_T13C_o1 (dsDNA) DNA 1: GCAGAATGAGGTCAAGATCAGGGAAACAGAATACATGCGATTGACAGCGTAGAATGAAGG DNA 2: CCTTCATTCTACGCTGTCAATCGCATGTATTCTGTTTCCCTGATCTTGACCTCATTCTGC,7.87 PBM z-score against 500 random probes
14,NRC3_wobSeed27_DR1_T5G_o1 (dsDNA) DNA 1: GCACGCGGAGGACAAAGGTCAGAGCTACGCCAGTGAGCGATTGACAGCGTAGAATGAAGG DNA 2: CCTTCATTCTACGCTGTCAATCGCTCACTGGCGTAGCTCTGACCTTTGTCCTCCGCGTGC,4.39 PBM z-score against 500 random probes
15,NRC3_wobSeed18_DR0_C18T_o1 (dsDNA) DNA 1: GCGATACAGGGTCAAGGTCAGAGTACGCGTATTGATGCGATTGACAGCGTAGAATGAAGG DNA 2: CCTTCATTCTACGCTGTCAATCGCATCAATACGCGTACTCTGACCTTGACCCTGTATCGC,7.81 PBM z-score against 500 random probes
16,NRC3_random_hg19_296_o1 (dsDNA) DNA 1: GCGGCCTATGGCTCCAGAATGCTAATGCTACTCTGCGCGATTGACAGCGTAGAATGAAGG DNA 2: CCTTCATTCTACGCTGTCAATCGCGCAGAGTAGCATTAGCATTCTGGAGCCATAGGCCGC,-0.48 PBM z-score against 500 random probes
